Reference: the supplement of paper PMC10567573

B1: SMTNL2 (parent)
chain: QKNFELAFTMAENLANCERLIEVE
B2: ZNF263 (parent)
chain: FGGNPRFLSLHRAHLGEEAHKCLE

Variants of: B1
Assay: protein stability index of a GFP-peptide fusion (GPS, HEK-293T) (PSI 1-6); higher = more stable
Conditions: c terminus: a fixed tail appended
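Note: lentivirally expressed fusions sorted by FACS into six bins by GFP to DsRed ratio, PSI derived from sequencing read proportions per bin multiplied by bin number.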

Variant	protein stability index
QKSFELAFTMAENLANCERLIEVE [N3S]	1.78
QKTFELAFTMAENLANCERLIEVE [N3T]	2.09
QKWFELAFTMAENLANCERLIEVE [N3W]	3.6
QKVFELAFTMAENLANCERLIEVE [N3V]	3.1
QKMFELAFTMAENLANCERLIEVE [N3M]	3.62
QKIFELAFTMAENLANCERLIEVE [N3I]	3.48
QKRFELAFTMAENLANCERLIEVE [N3R]	1.76
QKYFELAFTMAENLANCERLIEVE [N3Y]	1.96
QKDFELAFTMAENLANCERLIEVE [N3D]	3.28
QKEFELAFTMAENLANCERLIEVE [N3E]	1.61
QKQFELAFTMAENLANCERLIEVE [N3Q]	1.81
QKNFEIAFTMAENLANCERLIEVE [L6I]	2.12
QKNFEPAFTMAENLANCERLIEVE [L6P]	3.62
QKNFENAFTMAENLANCERLIEVE [L6N]	2.91
QKNFEFAFTMAENLANCERLIEVE [L6F]	1.91
QKNFEHAFTMAENLANCERLIEVE [L6H]	2.55
QKNFEAAFTMAENLANCERLIEVE [L6A]	3.32
QKNFEKAFTMAENLANCERLIEVE [L6K]	2.65
QKNFEGAFTMAENLANCERLIEVE [L6G]	3.23
QKNFEEAFTMAENLANCERLIEVE [L6E]	2.46
QKNFEQAFTMAENLANCERLIEVE [L6Q]	2.54
QKNFERAFTMAENLANCERLIEVE [L6R]	3.29
QVNFELAFTMAENLANCERLIEVE [K2V]	1.67
QTNFELAFTMAENLANCERLIEVE [K2T]	1.03

Variant	protein stability index
QCNFELAFTMAENLANCERLIEVE [K2C]	1.77
QENFELAFTMAENLANCERLIEVE [K2E]	1.84
QMNFELAFTMAENLANCERLIEVE [K2M]	1.7
QPNFELAFTMAENLANCERLIEVE [K2P]	2.24
QHNFELAFTMAENLANCERLIEVE [K2H]	1.13
QDNFELAFTMAENLANCERLIEVE [K2D]	2.51
QLNFELAFTMAENLANCERLIEVE [K2L]	1.78
QINFELAFTMAENLANCERLIEVE [K2I]	2.71
QSNFELAFTMAENLANCERLIEVE [K2S]	1.76
QRNFELAFTMAENLANCERLIEVE [K2R]	2.34
QGNFELAFTMAENLANCERLIEVE [K2G]	1.74
QKNFLLAFTMAENLANCERLIEVE [E5L]	1.72
QKNFQLAFTMAENLANCERLIEVE [E5Q]	1.25
QKNFDLAFTMAENLANCERLIEVE [E5D]	1.59
QKNFTLAFTMAENLANCERLIEVE [E5T]	1.94
QKNFGLAFTMAENLANCERLIEVE [E5G]	2.52
QKNFHLAFTMAENLANCERLIEVE [E5H]	1.96
QKNFNLAFTMAENLANCERLIEVE [E5N]	2.96
QKNFSLAFTMAENLANCERLIEVE [E5S]	1.39
QKNFCLAFTMAENLANCERLIEVE [E5C]	2.87
QKNFKLAFTMAENLANCERLIEVE [E5K]	2.24
QKNFRLAFTMAENLANCERLIEVE [E5R]	3.01
QKNFALAFTMAENLANCERLIEVE [E5A]	1.62
DKNFELAFTMAENLANCERLIEVE [Q1D]	1.28

Variant	protein stability index
NKNFELAFTMAENLANCERLIEVE [Q1N]	1.67
FKNFELAFTMAENLANCERLIEVE [Q1F]	3.06
KKNFELAFTMAENLANCERLIEVE [Q1K]	2.58
VKNFELAFTMAENLANCERLIEVE [Q1V]	1.54
TKNFELAFTMAENLANCERLIEVE [Q1T]	1.26
YKNFELAFTMAENLANCERLIEVE [Q1Y]	1.97
GKNFELAFTMAENLANCERLIEVE [Q1G]	1.2
LKNFELAFTMAENLANCERLIEVE [Q1L]	1.86
PKNFELAFTMAENLANCERLIEVE [Q1P]	2.56
QKNDELAFTMAENLANCERLIEVE [F4D]	3.72
QKNTELAFTMAENLANCERLIEVE [F4T]	3.51
QKNKELAFTMAENLANCERLIEVE [F4K]	4.05
QKNMELAFTMAENLANCERLIEVE [F4M]	2.31
QKNHELAFTMAENLANCERLIEVE [F4H]	1.98
QKNNELAFTMAENLANCERLIEVE [F4N]	3.27
QKNPELAFTMAENLANCERLIEVE [F4P]	4.09
QKNVELAFTMAENLANCERLIEVE [F4V]	2.87
QKNIELAFTMAENLANCERLIEVE [F4I]	2.53
QKNSELAFTMAENLANCERLIEVE [F4S]	3.4
QKNGELAFTMAENLANCERLIEVE [F4G]	3.73
QKNAELAFTMAENLANCERLIEVE [F4A]	2.45
QKNYELAFTMAENLANCERLIEVE [F4Y]	1.98
QKNRELAFTMAENLANCERLIEVE [F4R]	3.06
QKNEELAFTMAENLANCERLIEVE [F4E]	2.94

Variants of: B2
Assay: as above
Conditions: c terminus: a fixed tail appended

Variant	protein stability index
FGGNPRFLSLHRAHLGEEAHKDLE [C22D]	2.15
FGGNPRFLSLHRAHLGEEAHKKLE [C22K]	2
FGGNPRFLSLHRAHLGEEAHKQLE [C22Q]	2.66
FGGNPRFLSLHRAHLGEEAHKNLE [C22N]	2.17
FGGNPRFLSLHRAHLGEEAHKVLE [C22V]	2.51
FGGNPRFLSLHRAHLGEEAHKPLE [C22P]	2.44
FGGNPRFLSLHRAHLGEEAHKALE [C22A]	1.78
FGGNPRFLSLHRAHLGEEAHKFLE [C22F]	1.74
FGGNPRFLSLHRAHLGEEAHKELE [C22E]	2.19
FGGNPRFLSLHRAHLGEEAHKSLE [C22S]	3.62
FGGNPRFLSLHRAHLGEEAHKGLE [C22G]	1.62
FGGNPRFLSLHRAHLGEEAHKTLE [C22T]	1.47
FGGNPRFLSLHRAHLGEEAHKRLE [C22R]	1.75
FGGNPRFLSLHRAHLGEEAHKHLE [C22H]	2.44
FGGNPRFLSLHRAHLGEEAHKWLE [C22W]	1.46
FGGNPRFLSLHRAHLGEEAHKYLE [C22Y]	1.88
FGGNPRFLSLHRAHLGEEAHKMLE [C22M]	1.74
FGGNPRFLSLHRAHLGEEAHKILE [C22I]	1.59
FGGNPRFLSLHRAHLGEEAHKLLE [C22L]	1.38
FGGNPRFLSLHRAHLGEEAHKCLC [E24C]	2.15
FGGNPRFLSLHRAHLGEEAHKCLG [E24G]	1.72
FGGNPRFLSLHRAHLGEEAHKCLP [E24P]	1.63
